Results reported in patent US20150344570A1 (published 2015).

T1: FcγRIIb (human, UniProt P31994 43-217)
T1 construct: extracellular domain; also called FcgRIIb; CD32B
T1 sequence (looked up): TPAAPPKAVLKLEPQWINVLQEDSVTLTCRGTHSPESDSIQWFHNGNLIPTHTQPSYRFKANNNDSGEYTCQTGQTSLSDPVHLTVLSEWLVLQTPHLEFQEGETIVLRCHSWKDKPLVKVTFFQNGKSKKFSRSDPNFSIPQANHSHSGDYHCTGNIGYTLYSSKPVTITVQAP

B1: GpH7-A5/GpH7-B3 variant P329_03V/GpL16-k0 (antibody, human IgG1, kappa)
heavy 1: not shown
heavy 2: not shown
light: DIVMTQSPLSLPVTPGEPASISCQASESLVHSNRNTYLHWYLQKPGQSPQLLIYKVSNRFSGVPDRFSGSGSGTDFTLKISRVEAEDVGVYYCSQNTHVPPTFGQGTKVEIERTVAAPSVFIFPPSDEQLKSGTASVVCLLNNFYPREAKVQWKVDNALQSGNSQESVTEQDSKDSTYSLSSTLTLSKADYEKHKVYACEVTHQGLSSPVTKSFNRGEC
notes: He Ab; mutation in the GpH7-B3 chain only; also called He Ab
B2: GpH7-A5/GpH7-B3 variant P329_08L/GpL16-k0 (antibody, human IgG1, kappa)
heavy 1: not shown
heavy 2: not shown
light: DIVMTQSPLSLPVTPGEPASISCQASESLVHSNRNTYLHWYLQKPGQSPQLLIYKVSNRFSGVPDRFSGSGSGTDFTLKISRVEAEDVGVYYCSQNTHVPPTFGQGTKVEIERTVAAPSVFIFPPSDEQLKSGTASVVCLLNNFYPREAKVQWKVDNALQSGNSQESVTEQDSKDSTYSLSSTLTLSKADYEKHKVYACEVTHQGLSSPVTKSFNRGEC
notes: as for B1
B3: GpH7-A5/GpH7-B3 variant P329_19Q/GpL16-k0 (antibody, human IgG1, kappa)
heavy 1: not shown
heavy 2: not shown
light: DIVMTQSPLSLPVTPGEPASISCQASESLVHSNRNTYLHWYLQKPGQSPQLLIYKVSNRFSGVPDRFSGSGSGTDFTLKISRVEAEDVGVYYCSQNTHVPPTFGQGTKVEIERTVAAPSVFIFPPSDEQLKSGTASVVCLLNNFYPREAKVQWKVDNALQSGNSQESVTEQDSKDSTYSLSSTLTLSKADYEKHKVYACEVTHQGLSSPVTKSFNRGEC
notes: as for B1
B4: GpH7-A5/GpH7-B3 variant P329_06M/GpL16-k0 (antibody, human IgG1, kappa)
heavy 1: not shown
heavy 2: not shown
light: DIVMTQSPLSLPVTPGEPASISCQASESLVHSNRNTYLHWYLQKPGQSPQLLIYKVSNRFSGVPDRFSGSGSGTDFTLKISRVEAEDVGVYYCSQNTHVPPTFGQGTKVEIERTVAAPSVFIFPPSDEQLKSGTASVVCLLNNFYPREAKVQWKVDNALQSGNSQESVTEQDSKDSTYSLSSTLTLSKADYEKHKVYACEVTHQGLSSPVTKSFNRGEC
notes: as for B1
B5: GpH7-A5/GpH7-B3 variant P329_18N/GpL16-k0 (antibody, human IgG1, kappa)
heavy 1: not shown
heavy 2: not shown
light: DIVMTQSPLSLPVTPGEPASISCQASESLVHSNRNTYLHWYLQKPGQSPQLLIYKVSNRFSGVPDRFSGSGSGTDFTLKISRVEAEDVGVYYCSQNTHVPPTFGQGTKVEIERTVAAPSVFIFPPSDEQLKSGTASVVCLLNNFYPREAKVQWKVDNALQSGNSQESVTEQDSKDSTYSLSSTLTLSKADYEKHKVYACEVTHQGLSSPVTKSFNRGEC
notes: as for B1
B6: GpH7-A5/GpH7-B3 variant P329_13S/GpL16-k0 (antibody, human IgG1, kappa)
heavy 1: not shown
heavy 2: not shown
light: DIVMTQSPLSLPVTPGEPASISCQASESLVHSNRNTYLHWYLQKPGQSPQLLIYKVSNRFSGVPDRFSGSGSGTDFTLKISRVEAEDVGVYYCSQNTHVPPTFGQGTKVEIERTVAAPSVFIFPPSDEQLKSGTASVVCLLNNFYPREAKVQWKVDNALQSGNSQESVTEQDSKDSTYSLSSTLTLSKADYEKHKVYACEVTHQGLSSPVTKSFNRGEC
notes: as for B1
B7: GpH7-A5/GpH7-B3 variant P329_10E/GpL16-k0 (antibody, human IgG1, kappa)
heavy 1: not shown
heavy 2: not shown
light: DIVMTQSPLSLPVTPGEPASISCQASESLVHSNRNTYLHWYLQKPGQSPQLLIYKVSNRFSGVPDRFSGSGSGTDFTLKISRVEAEDVGVYYCSQNTHVPPTFGQGTKVEIERTVAAPSVFIFPPSDEQLKSGTASVVCLLNNFYPREAKVQWKVDNALQSGNSQESVTEQDSKDSTYSLSSTLTLSKADYEKHKVYACEVTHQGLSSPVTKSFNRGEC
notes: as for B1
B8: GpH7-A5/GpH7-B3 variant P329_12R/GpL16-k0 (antibody, human IgG1, kappa)
heavy 1: not shown
heavy 2: not shown
light: DIVMTQSPLSLPVTPGEPASISCQASESLVHSNRNTYLHWYLQKPGQSPQLLIYKVSNRFSGVPDRFSGSGSGTDFTLKISRVEAEDVGVYYCSQNTHVPPTFGQGTKVEIERTVAAPSVFIFPPSDEQLKSGTASVVCLLNNFYPREAKVQWKVDNALQSGNSQESVTEQDSKDSTYSLSSTLTLSKADYEKHKVYACEVTHQGLSSPVTKSFNRGEC
notes: as for B1
B9: GpH7-A5/GpH7-B3 variant P329_11K/GpL16-k0 (antibody, human IgG1, kappa)
heavy 1: not shown
heavy 2: not shown
light: DIVMTQSPLSLPVTPGEPASISCQASESLVHSNRNTYLHWYLQKPGQSPQLLIYKVSNRFSGVPDRFSGSGSGTDFTLKISRVEAEDVGVYYCSQNTHVPPTFGQGTKVEIERTVAAPSVFIFPPSDEQLKSGTASVVCLLNNFYPREAKVQWKVDNALQSGNSQESVTEQDSKDSTYSLSSTLTLSKADYEKHKVYACEVTHQGLSSPVTKSFNRGEC
notes: as for B1
B10: GpH7-A5/GpH7-B3 variant P329_09D/GpL16-k0 (antibody, human IgG1, kappa)
heavy 1: not shown
heavy 2: not shown
light: DIVMTQSPLSLPVTPGEPASISCQASESLVHSNRNTYLHWYLQKPGQSPQLLIYKVSNRFSGVPDRFSGSGSGTDFTLKISRVEAEDVGVYYCSQNTHVPPTFGQGTKVEIERTVAAPSVFIFPPSDEQLKSGTASVVCLLNNFYPREAKVQWKVDNALQSGNSQESVTEQDSKDSTYSLSSTLTLSKADYEKHKVYACEVTHQGLSSPVTKSFNRGEC
notes: as for B1
B11: GpH7-A5/GpH7-B3 variant P329_20W/GpL16-k0 (antibody, human IgG1, kappa)
heavy 1: not shown
heavy 2: not shown
light: DIVMTQSPLSLPVTPGEPASISCQASESLVHSNRNTYLHWYLQKPGQSPQLLIYKVSNRFSGVPDRFSGSGSGTDFTLKISRVEAEDVGVYYCSQNTHVPPTFGQGTKVEIERTVAAPSVFIFPPSDEQLKSGTASVVCLLNNFYPREAKVQWKVDNALQSGNSQESVTEQDSKDSTYSLSSTLTLSKADYEKHKVYACEVTHQGLSSPVTKSFNRGEC
notes: as for B1
B12: GpH7-A5/GpH7-B3 variant P329_16H/GpL16-k0 (antibody, human IgG1, kappa)
heavy 1: not shown
heavy 2: not shown
light: DIVMTQSPLSLPVTPGEPASISCQASESLVHSNRNTYLHWYLQKPGQSPQLLIYKVSNRFSGVPDRFSGSGSGTDFTLKISRVEAEDVGVYYCSQNTHVPPTFGQGTKVEIERTVAAPSVFIFPPSDEQLKSGTASVVCLLNNFYPREAKVQWKVDNALQSGNSQESVTEQDSKDSTYSLSSTLTLSKADYEKHKVYACEVTHQGLSSPVTKSFNRGEC
notes: as for B1
B13: GpH7-A5/GpH7-B3 variant P329_07I/GpL16-k0 (antibody, human IgG1, kappa)
heavy 1: not shown
heavy 2: not shown
light: DIVMTQSPLSLPVTPGEPASISCQASESLVHSNRNTYLHWYLQKPGQSPQLLIYKVSNRFSGVPDRFSGSGSGTDFTLKISRVEAEDVGVYYCSQNTHVPPTFGQGTKVEIERTVAAPSVFIFPPSDEQLKSGTASVVCLLNNFYPREAKVQWKVDNALQSGNSQESVTEQDSKDSTYSLSSTLTLSKADYEKHKVYACEVTHQGLSSPVTKSFNRGEC
notes: as for B1
B14: GpH7-A5/GpH7-B3 variant P329_15Y/GpL16-k0 (antibody, human IgG1, kappa)
heavy 1: not shown
heavy 2: not shown
light: DIVMTQSPLSLPVTPGEPASISCQASESLVHSNRNTYLHWYLQKPGQSPQLLIYKVSNRFSGVPDRFSGSGSGTDFTLKISRVEAEDVGVYYCSQNTHVPPTFGQGTKVEIERTVAAPSVFIFPPSDEQLKSGTASVVCLLNNFYPREAKVQWKVDNALQSGNSQESVTEQDSKDSTYSLSSTLTLSKADYEKHKVYACEVTHQGLSSPVTKSFNRGEC
notes: as for B1
B15: GpH7-A5/GpH7-B3 variant P329_04F/GpL16-k0 (antibody, human IgG1, kappa)
heavy 1: not shown
heavy 2: not shown
light: DIVMTQSPLSLPVTPGEPASISCQASESLVHSNRNTYLHWYLQKPGQSPQLLIYKVSNRFSGVPDRFSGSGSGTDFTLKISRVEAEDVGVYYCSQNTHVPPTFGQGTKVEIERTVAAPSVFIFPPSDEQLKSGTASVVCLLNNFYPREAKVQWKVDNALQSGNSQESVTEQDSKDSTYSLSSTLTLSKADYEKHKVYACEVTHQGLSSPVTKSFNRGEC
notes: as for B1
B16: GpH7-A5/GpH7-B3 variant P329_14T/GpL16-k0 (antibody, human IgG1, kappa)
heavy 1: not shown
heavy 2: not shown
light: DIVMTQSPLSLPVTPGEPASISCQASESLVHSNRNTYLHWYLQKPGQSPQLLIYKVSNRFSGVPDRFSGSGSGTDFTLKISRVEAEDVGVYYCSQNTHVPPTFGQGTKVEIERTVAAPSVFIFPPSDEQLKSGTASVVCLLNNFYPREAKVQWKVDNALQSGNSQESVTEQDSKDSTYSLSSTLTLSKADYEKHKVYACEVTHQGLSSPVTKSFNRGEC
notes: as for B1

What was measured:
[1] = molecular target: T2, FcγRIa (human, UniProt P12314 16-292); test: ratio of He/Con_1a to He/Con_2b (FcγRIa over FcγRIIb), SPR
T2 construct: extracellular domain; also called FcgRI; CD64
Method: (§1) The heterodimerized antibodies He Abs in which one of the H chains was introduced with an alteration were assayed for their binding activities to each activating FcγR and inhibitory FcγR according to the method described in Example 4. […] The activating FcγRs in FIGS. 26, 27, 28, and 29 are FcγRIa, FcγRIIa (R), FcγRIIa (H), and FcγRIIIa, respectively.
(§2) Analysis of interaction between objective antibody and the FcγR was carried out using Biacore T100 (GE Healthcare). HBS-EP+ (GE Healthcare) was used as the running buffer, and the measurement temperature was set to 25° C. Chips produced by immobilizing the antigen peptide by the amine coupling method to a Series S Sencor Chip CM5 (GE Healthcare), or alternatively, chips produced by allowing preliminarily biotinylated antigen peptides to interact with and immobilize onto a Series S Sensor Chip SA (certified) (GE Healthcare) were used. Antibodies of interest were captured onto an antigen peptide-immobilized chip, and allowed to interact to each FcγR diluted with running buffer. To regenerate and repeatedly use the chip, the antibodies captured on the chip were washed off by reacting 10 mM glycine-HCl, pH 1.5.

[2] = molecular target: T2, FcγRIa; test: SPR (Biacore), captured antibody, soluble FcγR; relative to GpH7-A5/GpH7-B3/GpL16-k0 = 100
Method: as §1, §2

[3] = molecular target: T1, FcγRIIb; test: as above
Method: as §1, §2

T2 sequence (P12314 16-292): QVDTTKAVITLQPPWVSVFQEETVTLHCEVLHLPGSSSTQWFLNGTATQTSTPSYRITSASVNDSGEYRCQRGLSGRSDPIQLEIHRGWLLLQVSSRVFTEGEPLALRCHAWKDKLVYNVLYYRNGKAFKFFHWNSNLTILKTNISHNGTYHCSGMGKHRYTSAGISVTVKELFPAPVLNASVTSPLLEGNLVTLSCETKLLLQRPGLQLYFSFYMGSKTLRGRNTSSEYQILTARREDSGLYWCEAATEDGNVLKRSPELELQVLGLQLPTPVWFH

Row | Binder | He_1a/2b (Ia/IIb) [1] | He/Con_1a [2] | He/Con_2b [3]
1 | B1 | 2.53 | 97.4 % of control | 38.5 % of control
2 | B2 | 2.95 | 85.7 % of control | 29.1 % of control
3 | B3 | 2.31 | 70.7 % of control | 30.7 % of control
4 | B4 | 2.94 | 85.3 % of control | 29.1 % of control
5 | B5 | 2.29 | 92.4 % of control | 40.4 % of control
6 | B6 | 2.27 | 93.3 % of control | 41 % of control
7 | B7 | 1.5 | 78.8 % of control | 52.7 % of control
8 | B8 | 4.22 | 74.3 % of control | 17.6 % of control
9 | B9 | 4.17 | 70.4 % of control | 16.9 % of control
10 | B10 | 1.45 | 77.6 % of control | 53.5 % of control
11 | B11 | 2.15 | 96.9 % of control | 45.1 % of control
12 | B12 | 2.45 | 95.6 % of control | 39.1 % of control
13 | B13 | 2.72 | 94.1 % of control | 34.6 % of control
14 | B14 | 2.09 | 95.6 % of control | 45.7 % of control
15 | B15 | 2.88 | 92.7 % of control | 32.2 % of control
16 | B16 | 2.37 | 89.7 % of control | 37.9 % of control
